What all share (settings): both partners purified
In assay [1] the target is T1, His-SUMO-FGF23 (N-terminal domain of human FGF23, wild type) (Homo sapiens, UniProt Q9GZV9).
T1 construct: FGF23, human, N-terminal domain; also called wild-type FGF23; source: E. coli BL21(DE3), purified (Ni-NTA); not shown: His, N-terminal, kept; SUMO, N-terminal, kept
Put plainly: ELISA; spot-check ELISA: FGF23 coated at 2 µg/mL on Maxisorp plates (4 °C overnight), Burosumab or its alanine mutants at two concentrations (0.04 and 1.2 µg/mL), room temperature 2 h, anti-human IgG H&L-HRP, A450; fold change from A450 against wild-type Burosumab.

The target of assay [2] is T2, His-SUMO-FGF23 Y124A (N-terminal domain of human FGF23) (Homo sapiens, UniProt Q9GZV9, Y124A).
T2 construct: FGF23, human, N-terminal domain; source: E. coli BL21(DE3), purified (Ni-NTA); not shown: His, N-terminal, kept; SUMO, N-terminal, kept
Nature of the assay: ELISA; indirect ELISA: FGF23 or its mutants coated at 2 µg/mL on Maxisorp plates (4 °C overnight), Burosumab or its variants three-fold serially diluted in PBS from 9 µg/mL, room temperature 2 h, anti-human IgG H&L-HRP, A450; fold change from Kd values against the wild type. For orientation: An ELISA detects its analyte on a solid surface through an enzyme-linked reagent.

Assay [3] addresses T3, His-SUMO-FGF23 H117A (N-terminal domain of human FGF23) (Homo sapiens, UniProt Q9GZV9, H117A).
T3 construct: FGF23, human, N-terminal domain; source: E. coli BL21(DE3), purified (Ni-NTA); not shown: His, N-terminal, kept; SUMO, N-terminal, kept
Described as above.

Assay [4] concerns the target T4, His-SUMO-FGF23 R160A-R161A (N-terminal domain of human FGF23) (Homo sapiens, UniProt Q9GZV9, R160A | R161A).
T4 construct: FGF23, human, N-terminal domain; also called combined R160A and R161A; double alanine mutant; source: E. coli BL21(DE3), purified (Ni-NTA); not shown: His, N-terminal, kept; SUMO, N-terminal, kept
The assay is described as above.

Assay [5] has as its target T1, His-SUMO-FGF23 (N-terminal domain of …). The assay is described as above.

T1 sequence (Q9GZV9 25-204): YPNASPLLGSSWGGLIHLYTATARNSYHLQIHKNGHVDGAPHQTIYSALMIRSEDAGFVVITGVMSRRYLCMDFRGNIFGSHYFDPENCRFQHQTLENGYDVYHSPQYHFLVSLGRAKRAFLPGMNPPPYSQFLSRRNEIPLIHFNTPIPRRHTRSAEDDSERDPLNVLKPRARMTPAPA
T3 sequence (Q9GZV9 25-204 H117A): as the sequence (Q9GZV9 25-204) above, with H93A counted along it
T4 sequence (Q9GZV9 25-204 R160A/R161A): as the sequence (Q9GZV9 25-204) above, with R136A, R137A counted along it
T2 sequence (Q9GZV9 25-204 Y124A): as the sequence (Q9GZV9 25-204) above, with Y100A counted along it

B1: Burosumab (wild type) (antibody, V domains shown)
VH: QVQLVQSGAEVKKPGASVKVSCKASGYTFTNHYMHWVRQAPGQGLEWMGIINPISGSTSNAQKFQGRVTMTRDTSTSTVYMELSSLRSEDTAVYYCARDIVDAFDFWGQGTMVTVSS
VL: AIQLTQSPSSLSASVGDRVTITCRASQGISSALVWYQQKPGKAPKLLIYDASSLESGVPSRFSGSGSGTDFTLTISSLQPEDFATYYCQQFNDYFTFGPGTKVDIK
notes: heavy chain of Burosumab; light chain of Burosumab; Whole antibody, detected with anti-human IgG H&L. The results say HEK293T, the methods HEK293-F FreeStyle; Residue numbers are Chothia; also called Crysvita; WT Burosumab; source: HEK293-F FreeStyle, transiently transfected, purified (Protein A agarose)
Turning to B1, in assay [1], the binding result is given as “binds”. Moreover, the “fold decrease in binding against wild-type FGF23” value in assay [2] was roughly 50 fold; in assay [3], greater than 100 fold; in assay [4], 7 fold.

B2: Burosumab VH:D98A (antibody, V domains shown)
VH: QVQLVQSGAEVKKPGASVKVSCKASGYTFTNHYMHWVRQAPGQGLEWMGIINPISGSTSNAQKFQGRVTMTRDTSTSTVYMELSSLRSEDTAVYYCARDIVAAFDFWGQGTMVTVSS
VL: AIQLTQSPSSLSASVGDRVTITCRASQGISSALVWYQQKPGKAPKLLIYDASSLESGVPSRFSGSGSGTDFTLTISSLQPEDFATYYCQQFNDYFTFGPGTKVDIK
notes: as the heavy chain of m1; as the light chain of m1; source: HEK293-F FreeStyle, transiently transfected, purified (Protein A agarose)
Regarding B2, the “fold decrease in binding against wild-type Burosumab” value in assay [1] was 2.62 fold.

B3: Burosumab VH:V97A (antibody, V domains shown)
VH: QVQLVQSGAEVKKPGASVKVSCKASGYTFTNHYMHWVRQAPGQGLEWMGIINPISGSTSNAQKFQGRVTMTRDTSTSTVYMELSSLRSEDTAVYYCARDIADAFDFWGQGTMVTVSS
VL: AIQLTQSPSSLSASVGDRVTITCRASQGISSALVWYQQKPGKAPKLLIYDASSLESGVPSRFSGSGSGTDFTLTISSLQPEDFATYYCQQFNDYFTFGPGTKVDIK
notes: as for B2
Take B3: in assay [1], the “fold improvement of binding affinity against wild-type Burosumab” value was found to be 1.2 fold.

B4: Burosumab VL:D50A (antibody, V domains shown)
VH: QVQLVQSGAEVKKPGASVKVSCKASGYTFTNHYMHWVRQAPGQGLEWMGIINPISGSTSNAQKFQGRVTMTRDTSTSTVYMELSSLRSEDTAVYYCARDIVDAFDFWGQGTMVTVSS
VL: AIQLTQSPSSLSASVGDRVTITCRASQGISSALVWYQQKPGKAPKLLIYAASSLESGVPSRFSGSGSGTDFTLTISSLQPEDFATYYCQQFNDYFTFGPGTKVDIK
notes: as the heavy chain of m1; as the light chain of m1; also called D50A (LCDR2); source: HEK293-F FreeStyle, transiently transfected, purified (Protein A agarose)
In the case of B4, in assay [1], the binding result is “no binding” and the “fold decrease in binding against wild-type Burosumab” value is greater than 100 fold.

B5: Burosumab VL:F96A (antibody, V domains shown)
VH: QVQLVQSGAEVKKPGASVKVSCKASGYTFTNHYMHWVRQAPGQGLEWMGIINPISGSTSNAQKFQGRVTMTRDTSTSTVYMELSSLRSEDTAVYYCARDIVDAFDFWGQGTMVTVSS
VL: AIQLTQSPSSLSASVGDRVTITCRASQGISSALVWYQQKPGKAPKLLIYDASSLESGVPSRFSGSGSGTDFTLTISSLQPEDFATYYCQQFNDYATFGPGTKVDIK
notes: as the heavy chain of m1; as the light chain of m1; also called F96A (LCDR3); source: HEK293-F FreeStyle, transiently transfected, purified (Protein A agarose)
For the molecule B5, in assay [1], the “fold decrease in binding against wild-type Burosumab” value was 2.32 fold.

B6: Burosumab variant with combined VH:V97A and VL:A32S mutations (antibody, V domains shown)
VH: QVQLVQSGAEVKKPGASVKVSCKASGYTFTNHYMHWVRQAPGQGLEWMGIINPISGSTSNAQKFQGRVTMTRDTSTSTVYMELSSLRSEDTAVYYCARDIADAFDFWGQGTMVTVSS
VL: AIQLTQSPSSLSASVGDRVTITCRASQGISSSLVWYQQKPGKAPKLLIYDASSLESGVPSRFSGSGSGTDFTLTISSLQPEDFATYYCQQFNDYFTFGPGTKVDIK
notes: as the heavy chain of m1; as the light chain of m1; also called combined Burosumab variant; double mutant; source: HEK293-F FreeStyle, transiently transfected, purified (Protein A agarose)
On to B6, for which, in assay [5], the “fold improvement of binding against wild-type Burosumab” value came out at 3.7 fold.

B7: Burosumab VL:A32S (antibody, V domains shown)
VH: QVQLVQSGAEVKKPGASVKVSCKASGYTFTNHYMHWVRQAPGQGLEWMGIINPISGSTSNAQKFQGRVTMTRDTSTSTVYMELSSLRSEDTAVYYCARDIVDAFDFWGQGTMVTVSS
VL: AIQLTQSPSSLSASVGDRVTITCRASQGISSSLVWYQQKPGKAPKLLIYDASSLESGVPSRFSGSGSGTDFTLTISSLQPEDFATYYCQQFNDYFTFGPGTKVDIK
notes: as for B2
B7: in assay [5], the “fold improvement of binding affinity against wild-type Burosumab” value was found to be 1.6 fold.

These data come from PMC9427789, “Prediction of the structural interface between fibroblast growth factor23 and Burosumab using alanine scanning and molecular docking” (Scientific Reports, 2022).
